This data set can be described thus: protein stability index of a GFP-peptide fusion (GPS, HEK-293T) (PSI 1-6); higher = more stable. Conditions: c terminus: a fixed tail appended.

± gives the standard deviation.
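Further: 24-mer peptide tiles fused after GFP, lentivirally expressed, FACS-sorted into six equal bins by GFP/DsRed ratio, decoded by Illumina sequencing, PSI is the read-weighted mean bin number.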

Turning to CQVGGIEALVRTVLRAGDREDITE [CTNNB1], the protein stability index reads like this: (treatment: DMSO) 3.28 ± 0.46; (treatment: MLN4924 1 uM, 8 h) 3.21 ± 0.46. The corresponding values for CREPSPKMDFKTNILLKNLVTIAR [TRIM43] are 2.8 ± 0.59 and 2.35 ± 0.49.

Take CSIGFAVRYLNAYTGIVLLRCRKE [POP5]: the protein stability index came out at 3.13 ± 0.43 (treatment: DMSO) and 2.99 ± 0.57 (treatment: MLN4924 1 uM, 8 h). For CSNLVKTRRRAVGWWKRLFTLKEE [ARL6IP1], the protein stability index (treatment: DMSO) is 2.42 ± 0.28 and the protein stability index (treatment: MLN4924 1 uM, 8 h) came to 2.6 ± 0.21. On the same counts, the results for CSSKRSSYPVMGFEFQVRVCDSCY [WDFY1] are 2.66 ± 0.9 and 2.32 ± 0.23. On the same counts, the results for CSSSNLAGNDDSFGSLPSPKELSS [DLC1] are 4.37 ± 0.15 and 4.37 ± 0.27. On the same counts, the results for CTPGGTTIYGLHALEQGGLRAATM [PYCR3] are 2.36 ± 0.73 and 2.25 ± 0.72.

For the sequence CTQVTQDGDIPNIPAEENASTSTP [FAM189A2], the protein stability index is, setting by setting: (treatment: DMSO) 5.65 ± 0.2; (treatment: MLN4924 1 uM, 8 h) 5.5 ± 0.33.

On to CVLYACFILGRLCVPVFANMSREP [SOAT2], for which the protein stability index is, setting by setting: (treatment: DMSO) 3 ± 0.36; (treatment: MLN4924 1 uM, 8 h) 3.31 ± 0.21. On the same counts, the results for CVTPNGRPISGTAVAHKTPRCPGS [SMOC2] are 2.98 ± 0.67 and 3.89 ± 0.34. On the same counts, the results for DAAIHGFRETEKSRWSEASRAILQ [ALKBH7] are 3.8 ± 0.51 and 3.83 ± 0.66. On the same counts, the results for DCSDILRLIKELAKYEYMEEQVIL [SAT1] are 1.95 ± 0.51 and 2.23 ± 0.1. In turn, DDMPIGRNVLELNDVRQSANYTCV [PTPRD] had a protein stability index (treatment: DMSO) of 3.72 ± 0.28 and a protein stability index (treatment: MLN4924 1 uM, 8 h) of 3.77 ± 0.44. On the same counts, the results for DDNSCEDLEEERREEEEKTPPETK [PCMTD2] are 5.73 ± 0.34 and 5.54 ± 0.25. On the same counts, the results for DELQQSFQKSHNSLQRWEHLKKVA [PRIM1] are 3.76 ± 0.38 and 3.88 ± 0.45. As for DEPYEKVVDRIQSSGKNVTLLVCG [PDZK1], where the note is “treatment: MLN4924 1 uM, 8 h”, the protein stability index is 3.5 ± 0.36. DEYQYSFWDLFRSKDNMRTRIMIG [SLC2A12]: the protein stability index is, setting by setting: (treatment: DMSO) 1.85 ± 0.38; (treatment: MLN4924 1 uM, 8 h) 2.14 ± 0.38.

DFEHRPKAPVVECSITGDSSRVIA [WDR88]: the protein stability index is 4.36 ± 0.26 (treatment: DMSO) and 4.49 ± 0.17 (treatment: MLN4924 1 uM, 8 h). On to DGEILFSLLQKVSPVAHKHLSRQK [TBC1D10A], for which the protein stability index by setting is: (treatment: DMSO) 2.36 ± 0.11; (treatment: MLN4924 1 uM, 8 h) 2.48 ± 0.37. On the same counts, the results for DGGSSLASGSTQRQPPPPAPQHPQ [FBXO28] are 5.22 ± 0.34 and 5.18 ± 0.35.

Take DHMREAGDVCYADVYRDGTGVVEF [SRSF1]: the protein stability index (treatment: DMSO) came out at 3.15 ± 0.28 and the protein stability index (treatment: MLN4924 1 uM, 8 h) worked out at 3.18 ± 0.23. The sequence DHVHILDTETFTWSQPITTGKAPS [KLHDC2] displayed a protein stability index (treatment: DMSO) of 3.82 ± 0.3 and a protein stability index (treatment: MLN4924 1 uM, 8 h) of 3.84 ± 0.4.

In turn, DIKRLLVNFMYLQSLLQPKSSSVD [SMG5] registered a protein stability index (treatment: DMSO) of 2.97 ± 0.54 and a protein stability index (treatment: MLN4924 1 uM, 8 h) of 3.08 ± 0.51. On to DITDDCICDLARSIDFNKDGHIDI [PPEF2], for which the protein stability index was 3.87 ± 0.19 (treatment: DMSO) and 4.05 ± 0.39 (treatment: MLN4924 1 uM, 8 h).

On to DLKDDGNMMKVLRGHQNWVYSCAF [WSB1], for which the protein stability index reads like this: (treatment: DMSO) 2.3 ± 0.29; (treatment: MLN4924 1 uM, 8 h) 1.87 ± 0.22. As for DLKPENILFVNSEFETLYNEHKSC [CLK3], the protein stability index is, setting by setting: (treatment: DMSO) 3.38 ± 0.37; (treatment: MLN4924 1 uM, 8 h) 3.48 ± 0.26. Turning to DLQNLLGFTPEELHAILGVQPDTE [ETS2], the protein stability index stood at 3.25 ± 0.21 (treatment: DMSO) and 3.45 ± 0.29 (treatment: MLN4924 1 uM, 8 h). As to DLVLDEEGARAAGLGELGAALLQL [ESRRA], the protein stability index was found to be 3.94 ± 0.19 (treatment: DMSO) and 4.05 ± 0.17 (treatment: MLN4924 1 uM, 8 h). The corresponding values for DMELHRMSRMQSKEYPVVPRSTVR [TBX5] are 4.35 ± 0.07 and 4.33 ± 0.15. The corresponding values for DNAVKNHWNSTIKRKVDTGGFLSE [MYBL2] are 3.87 ± 0.2 and 3.71 ± 0.14. On the same counts, the results for DNDHKEAVGKMGFVVTMLKLIQKK [ZER1] are 2.21 ± 0.37 and 2.07 ± 0.34. Consider DPGHCFAESRELPVRCAGDWLPRG [ALG2], for which the protein stability index by setting is: (treatment: DMSO) 3.1 ± 0.38; (treatment: MLN4924 1 uM, 8 h) 3.05 ± 0.25.

For DPNSQVGACIVNSENKIVGIGYNG [DCTD], the protein stability index reads like this: (treatment: DMSO) 4.56 ± 0.15; (treatment: MLN4924 1 uM, 8 h) 4.56 ± 0.48. On the same counts, the results for DQLYRRKKDNHALVRETDELRRNH [ELOA2] are 4.53 ± 0.42 and 4.48 ± 0.43. On the same counts, the results for DRLASNVAKRKSSMPQKFLGDKGL [IKZF1] are 3.95 ± 0.11 and 4.05 ± 0.17. On the same counts, the results for DSAVENLLLLSKAKLVPSEREASP [IKZF1] are 4.15 ± 0.23 and 4.59 ± 0.14. Take DSLAKEIQYLKDLIEEVRKARGKK [ATF4]: the protein stability index was 2.25 ± 0.31 (treatment: DMSO) and 2.14 ± 0.44 (treatment: MLN4924 1 uM, 8 h). On the same counts, the results for DSLGGSQEMVQRPQPHRNRAGLDL [TRAF3IP2] are 4.87 ± 0.23 and 4.58 ± 0.41. The corresponding values for DSMEGKRSPYAGLQLGAAKKPPVT [TRIM29] are 4.58 ± 0.35 and 4.52 ± 0.18.

Regarding DSSTSPKGKQPTSAENSVAKKEDK [NANOGP8], the protein stability index by setting is: (treatment: DMSO) 5.57 ± 0.36; (treatment: MLN4924 1 uM, 8 h) 5.58 ± 0.19. On the same counts, the results for DTNLGRLEDGQTPLHLSALRDDVL [ASB7] are 4.59 ± 0.1 and 4.56 ± 0.21.

Take DTQVNPVGSVSVDCGPSRADRCSP [FBXO34]: the protein stability index is, setting by setting: (treatment: DMSO) 5.09 ± 0.32; (treatment: MLN4924 1 uM, 8 h) 5.15 ± 0.28.

Take DVCSFPNALVTKLLLDCGAEVNAV [FEM1B]: the protein stability index reads like this: (treatment: DMSO) 2.48 ± 0.83; (treatment: MLN4924 1 uM, 8 h) 2.44 ± 0.48.

With DVDITLSSEAFHNYMNAAMVHINR [RTN3], the protein stability index amounted to 2.18 ± 0.087 (treatment: DMSO) and 2.32 ± 0.25 (treatment: MLN4924 1 uM, 8 h). As for DVGRYIDHYAAIKKAWDDLKKYLE [FBXO3], the protein stability index was 2.31 ± 0.34 (treatment: DMSO) and 2.97 ± 0.52 (treatment: MLN4924 1 uM, 8 h). For DVLLTLKHTVKEHECKLTQEILEL [IQUB], the protein stability index (treatment: DMSO) came to 2.12 ± 0.2 and the protein stability index (treatment: MLN4924 1 uM, 8 h) is 1.96 ± 0.47. The corresponding values for DWYQKQTPTSPECDYSQYFKTIEE [KRT15] are 3.86 ± 0.23 and 3.97 ± 0.26. The corresponding values for EALLKLLAGLTRPDVRPPLGRGLV [SEPHS2] are 2.22 ± 0.45 and 2.32 ± 0.24. On to EALRALQEGLWLDRGTRVVFIDFS [PKD2L1], for which the protein stability index (treatment: DMSO) turned out to be 2.3 ± 0.72 and the protein stability index (treatment: MLN4924 1 uM, 8 h) was 2.34 ± 0.35. The corresponding values for EAYTKICDPGLTAFEPEALGNLVE [CAMK2D] are 3.91 ± 0.25 and 3.62 ± 0.27. Take ECDNMLMLLSVSQSMSEEEREKVT [SEPHS2]: the protein stability index (treatment: DMSO) was determined as 4.58 ± 0.12 and the protein stability index (treatment: MLN4924 1 uM, 8 h) is 4.58 ± 0.24. Turning to ECKQLSESQVKSLCEKAKEILTKE [PPP2CA], the protein stability index came out at 4.64 ± 0.2 (treatment: DMSO) and 4.82 ± 0.18 (treatment: MLN4924 1 uM, 8 h). The corresponding values for ECLKKFNARRKLKGAILTTMLATR [CAMK2B] are 2.98 ± 0.32 and 2.94 ± 0.29. On the same counts, the results for EDEAGGRFVAFSGEGQSLRKKGRK [UFD1] are 5.51 ± 0.25 and 5.41 ± 0.46. The corresponding values for EDITKGTQSLPTASASKFPSSGPV [AUP1] are 5.19 ± 0.19 and 5.08 ± 0.1. On to EDPFYWVSPGVLVLLAVLPVLLLQ [MOG], for which the protein stability index runs as follows: (treatment: DMSO) 2.52 ± 0.41; (treatment: MLN4924 1 uM, 8 h) 2.38 ± 0.69. On the same counts, the results for EDQYEENSHLTSVPHWINSNTLGF [ETS2] are 3.2 ± 0.34 and 3.13 ± 0.3.

As to EDRKLPAPGADVKVHRARKTMPKS [EHMT1], the protein stability index is 5.28 ± 0.31 (treatment: DMSO) and 5.19 ± 0.18 (treatment: MLN4924 1 uM, 8 h). On the same counts, the results for EDRLSLKFLPSSEEDNDDAKILPS [DRICH1] are 5.34 ± 0.23 and 5.33 ± 0.11. Consider EDSKRWSKMDQLAKELTAEKRLEG [CHGA], for which the protein stability index worked out at 4.97 ± 0.33 (treatment: DMSO) and 5.11 ± 0.26 (treatment: MLN4924 1 uM, 8 h). On the same counts, the results for EDSYRKQVEVDAQQCMLEILDTAG [RAP1B] are 4.62 ± 0.13 and 4.5 ± 0.14. The corresponding values for EDTDPSTLSFNMSDKYPIQDTELP [EDARADD] are 5.11 ± 0.12 and 4.89 ± 0.089.

For EEEMNALRGQVGGEINVEMDAAPG [KRT17], the protein stability index worked out at 5.45 ± 0.34 (treatment: DMSO) and 5.53 ± 0.13 (treatment: MLN4924 1 uM, 8 h). Take EEERAQDRIATTDDTTAMASASSS [MAGEA10]: the protein stability index was determined as 5.66 ± 0.17 (treatment: DMSO) and 5.42 ± 0.1 (treatment: MLN4924 1 uM, 8 h).

Turning to EEERPLPEKEYQRQVWLLFEYPES [KCNA1], the protein stability index turned out to be 3.33 ± 0.12 (treatment: DMSO) and 3.63 ± 0.28 (treatment: MLN4924 1 uM, 8 h). On the same counts, the results for EEGFMTAELAGVIKRLWKDSGVQA [GNAI1] are 3.19 ± 0.49 and 3.53 ± 0.58. In the case of EELNNGEPQTEHQQESESEIDSVP [MIA2], the protein stability index runs as follows: (treatment: DMSO) 5.6 ± 0.24; (treatment: MLN4924 1 uM, 8 h) 5.52 ± 0.43. On the same counts, the results for EELRKFSSLCYKQRIKSQERETEA [MOG] are 4.47 ± 0.28 and 4.22 ± 0.076.

Consider EEMAKSSRASAARVGQLQEALNER [LRRC45], for which the protein stability index came to 4.97 ± 0.46 (treatment: DMSO) and 5.12 ± 0.28 (treatment: MLN4924 1 uM, 8 h). On the same counts, the results for EETRVWHRRDGKWQNVHFHCSGAP [CAMK2B] are 3.1 ± 0.15 and 3.11 ± 0.32. Turning to EETTSQDWGTPRELTFSYIAFDGV [RTN2], the protein stability index worked out at 2.65 ± 0.15 (treatment: DMSO) and 2.8 ± 0.61 (treatment: MLN4924 1 uM, 8 h). The corresponding values for EEVRQLLETMARNEVIADINCKGR [OSBPL1A] are 3.16 ± 0.33 and 3.01 ± 0.46. On the same counts, the results for EGATLLLRGLCANTVLRFLDLKGN [LRRC45] are 2.6 ± 0.4 and 2.98 ± 0.77.

The values are drawn from the supplement of paper PMC10567573.
